For assay [1], the system named is RAJI cells. Description: JNG assay, co-culture with RAJI cells. It counts as cell-based. The settings on record: JNG cells expressing construct, co-culture with Raji. Summed up:
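Jurkat NFAT-GFP (JNG) cells stably transduced with SARs by lentivirus, with drug selection where the construct carried a resistance gene, then co-cultured with target cells at E:T ~1:2 for ~4–18 h. % GFP-positive cells measured by FACS against parental JNG; +/- to 5+ correspond to ~5–50% GFP-positive.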

Assay [2] concerns RAJI-CD19-KO cells. Put plainly: JNG assay, co-culture with RAJI-CD19-KO cells. The format is cell-based. The settings on record: co-culture with Raji-CD19-KO. On the procedure:
Cellular supernatant is collected and assayed for the induction of cytokines (e.g., IL2).
JNG (Jurkat cells expressing EGFP under an NFAT promoter) were infected with lentiviral vectors encoding different single chain and multi-chain SARs by spinfection in the presence of 8 µg/ml of Polybrene® (Sigma, Catalog no. H9268). The Jurkat-NFAT-GFP cells are engineered in such a way that the IL-2 promoter, which carries NFAT binding sites, is cloned upstream of the GFP gene. These cells have been used to study signaling via TCR and CAR. The different SARs were stably expressed in Jurkat NFAT-GFP cells by lentiviral mediated gene transfer, followed by selection with puromycin or blasticidin. No drug selection was used in case the construct lacked an antibiotic resistance gene. The SAR-expressing Jurkat-NFAT-GFP cells were cocultured with the target cells at E:T ratio of approximately 1:2 for approximately 4 hours to 18 hours. When the interaction between SIRs and their target antigen results in activation of the NFAT pathway, GFP expression is induced. […] GFP expression was monitored by FACS analysis. The Jurkat-NFAT-GFP (parental) cells were used as control. The structure of different constructs can be determined based on their names. […] The sequence of the other constructs in the table can be similarly determined from their names and by referring to the different Tables of this disclosure that provide the names and SEQ ID NO of the different modules. Alternatively, the composition and modular architecture of the different SAR constructs can be determined from their sequences by bioinformatics tools, including using nucleic acid and amino acids homology searches. A SAR is considered positive in the assay in case the SAR expressing Jurkat-NFAT-GFP cells show greater % GFP positive cells when cultured with the target cell line as compared to parental Jurkat-NFAT-GFP cells. […] In general, the number +/-, +, 2+, 3+, 4+, 5+ refer to approximately 5%, 10%, 20%, 30%, 40% and 50% GFP positive cells. The % of GFP induction in the above assay is dependent not only the relative strength of the SAR but also, among other factors, on the relative level of expression of the SAR in the JNG cells and the relative level of expression of the target antigen in the target cell line. To control for the difference in gene transduction efficiency of the different SAR constructs, the experiment was conducted with JNG cells transduced with SAR constructs co-expressing a drug resistance gene (e.g., puromycin or PAC) followed by drug selection to generate a stable population of SAR-expressing cells. It is to be noted that the drug resistance gene (e.g., PAC) in the SAR constructs is optional and in vivo studies were conducted with SAR constructs lacking the PAC gene.

B1: 22120 (protein)
chain: MALPVTALLLPLALLLHAARPDIQMTQSPSSLSASVGDRVTITCKASDHINNWLAWYQQKPGQAPKLLIYGATTLETGVPSRFSGSGSGTDYTLTISSLQPEDFATYYCQQSWNTPWTFGQGTKLEIKRLEGQPKANPTVTLFPPSSEELQANKATLVCLISDFYPGAVTVAWKADGSPVKAGVETTKPSKQSNNKYAASSYLSLTPEQWKSHRSYSCQVTHEGSTVEKTVAPTECSGRADCGFTSESYQQGVLSATILYEILLGKATLYAVLVSALVLMAMVKRKDSRGRAKRSGSGATNFSLLKQAGDVEENPGPTSATMDWIWRILFLVGAATGAHSGPQVQLQESGGGLAQAGGSLRLSCAASGRTFSMGWFRQAPGKEREFVAAITYSGGSPYYASSVRGRFTISRDNAKNTVYLQMNSLKPEDTAVYYCAANPTYGSDWNAENWGQGTQVTVSSGSGGGGSGGGGSGGGGSFEQVQLQQPGAELVKPGASVKMSCKASGYAFSSYWINWMKQKPGQGLEWIGQIYPGDGDTNYNGKFKGRATLTADTSSSTAYMQLSSLTSEDSAVYFCARSITTVVGCAMDYWGQGTSVTVSSTRASTKGPSVFPLAPSSKSTSGGTAALGCLVKDYFPEPVTVSWNSGALTSGVHTFPAVLQSSGLYSLSSVVTVPSSSLGTQTYICNVNHKPSNTKVDKRVEPKSCIPEDTFFPSPESSCDVKLVEKSFETDTNLNFQNLSVIGFRILLLKVAGFNLLMTLRLWSSRAKRSGSGVKQTLNFDLLKLAGDVESNPGPSRGHMTEYKPTVRLATRDDVPRAVRTLAAAFADYPATRHTVDPDRHIERVTELQELFLTRVGLDIGKVWVADDGAAVAVWTTPESVEAGAVFAEIGPRMAELSGSRLAAQQQMEGLLAPHRPKEPAWFLATVGVSPDHQGKGLGSAVVLPGVEAAERAGVPAFLETSAPRNLPFYERLGFTVTADVEVPEGPRTWCMTRKPGA
For B1, the “NFAT-GFP ASSAY: Raji” value in assay [1] was 4+ (refer to approximately 5%, 10%, 20%, 30%, 40% and 50% GFP positive cells). Further, the “NFAT-GFP ASSAY: Raji-CD19-KO” value in assay [2] is 3+ (refer to approximately 5%, 10%, 20%, 30%, 40% and 50% GFP positive cells).

B2: 22113 (protein)
chain: MALPVTALLLPLALLLHAARPDIQMTQSPSSLSASVGDRVTITCKASDHINNWLAWYQQKPGQAPKLLIYGATTLETGVPSRFSGSGSGTDYTLTISSLQPEDFATYYCQQSWNTPWTFGQGTKLEIKRLEDLKNVFPPEVAVFEPSKAEIAHTQKATLVCLATGFYPDHVELSWWVNGKEVHSGVCTDPQPLKEQPALNDSRYCLSSRLRVSATFWQNPRNHFRCQVQFYGLSENDEWTQDRAKPVTQIVSAEAWGRADCGITSASYHQGVLSATILYEILLGKATLYAVLVSALVLMAMVKRKDSRGRAKRSGSGATNFSLLKQAGDVEENPGPTSMDWIWRILFLVGAATGAHSGPQVQLQESGGGLAQAGGSLRLSCAASGRTFSMGWFRQAPGKEREFVAAITYSGGSPYYASSVRGRFTISRDNAKNTVYLQMNSLKPEDTAVYYCAANPTYGSDWNAENWGQGTQVTVSSGSGGGGSGGGGSGGGGSFEQVQLQQPGAELVKPGASVKMSCKASGYAFSSYWINWMKQKPGQGLEWIGQIYPGDGDTNYNGKFKGRATLTADTSSSTAYMQLSSLTSEDSAVYFCARSITTVVGCAMDYWGQGTSVTVSSTRIQNPDPAVYQLRDSKSSDKSVCLFTDFDSQTNVSQSKDSDVYITDKCVLDMRSMDFKSNSAVAWSNKSDFACANAFNNSIIPEDTFFPSSDVPCDVKLVEKSFETDTNLNFQNLSVIGFRILLLKVAGFNLLMTLRLWSSRAKRSGSGVKQTLNFDLLKLAGDVESNPGPSRGHMTEYKPTVRLATRDDVPRAVRTLAAAFADYPATRHTVDPDRHIERVTELQELFLTRVGLDIGKVWVADDGAAVAVWTTPESVEAGAVFAEIGPRMAELSGSRLAAQQQMEGLLAPHRPKEPAWFLATVGVSPDHQGKGLGSAVVLPGVEAAERAGVPAFLETSAPRNLPFYERLGFTVTADVEVPEGPRTWCMTRKPGA
Turning to B2, the “NFAT-GFP ASSAY: Raji” value in assay [1] is 5+ (refer to approximately 5%, 10%, 20%, 30%, 40% and 50% GFP positive cells). For the same molecule, in assay [2], the “NFAT-GFP ASSAY: Raji-CD19-KO” value is 4+ (refer to approximately 5%, 10%, 20%, 30%, 40% and 50% GFP positive cells).

B3: 22112 (protein)
chain: MALPVTALLLPLALLLHAARPDIQMTQSPSSLSASVGDRVTITCKASDHINNWLAWYQQKPGQAPKLLIYGATTLETGVPSRFSGSGSGTDYTLTISSLQPEDFATYYCQQSWNTPWTFGQGTKLEIKRLEDLKNVFPPEVAVFEPSEAEISHTQKATLVCLATGFYPDHVELSWWVNGKEVHSGVCTDPQPLKEQPALNDSRYCLSSRLRVSATFWQNPRNHFRCQVQFYGLSENDEWTQDRAKPVTQIVSAEAWGRADCGFTSESYQQGVLSATILYEILLGKATLYAVLVSALVLMAMVKRKDSRGRAKRSGSGATNFSLLKQAGDVEENPGPTSATMDWIWRILFLVGAATGAHSGPEVQLVESGGGLVQAGGSLRLSCAASGRTFTMGWFRQAPGKEREFVAAISLSPTLAYYADSVKGRFTISRDNAKNTVVLQMNSLKPEDTALYYCAADRKSVMSIRPDYWGQGTQVTVSSGSGGGGSGGGGSGGGGSFEQVQLQQPGAELVKPGASVKMSCKASGYAFSSYWINWMKQKPGQGLEWIGQIYPGDGDTNYNGKFKGRATLTADTSSSTAYMQLSSLTSEDSAVYFCARSITTVVGCAMDYWGQGTSVTVSSTRIQNPDPAVYQLRDSKSSDKSVCLFTDFDSQTNVSQSKDSDVYITDKCVLDMRSMDFKSNSAVAWSNKSDFACANAFNNSIIPEDTFFPSPESSCDVKLVEKSFETDTNLNFQNLSVIGFRILLLKVAGFNLLMTLRLWSSRAKRSGSGVKQTLNFDLLKLAGDVESNPGPSRGHMTEYKPTVRLATRDDVPRAVRTLAAAFADYPATRHTVDPDRHIERVTELQELFLTRVGLDIGKVWVADDGAAVAVWTTPESVEAGAVFAEIGPRMAELSGSRLAAQQQMEGLLAPHRPKEPAWFLATVGVSPDHQGKGLGSAVVLPGVEAAERAGVPAFLETSAPRNLPFYERLGFTVTADVEVPEGPRTWCMTRKPGA
On to B3, for which, in assay [2], the “NFAT-GFP ASSAY: Raji-CD19-KO” value is 5+ (refer to approximately 5%, 10%, 20%, 30%, 40% and 50% GFP positive cells).

B4: 22133 (protein)
chain: MALPVTALLLPLALLLHAARPEVQLVESGGGLVQPGGSLRLSCAASGFSFSDFWMSWVRQAPGKGLEWVATISQAGSEKDYVDSVKGRFTISRDNAKKSLYLQMNSLRAEDTAVYYCASGVYSFDYRGQGTLVTVSSGTGGGGSGGGGSGGGGSEFDIQMTQSPSSLSASVGDRVTITCKASDHINNWLAWYQQKPGQAPKLLIYGATTLETGVPSRFSGSGSGTDYTLTISSLQPEDFATYYCQQSWNTPWTFGQGTKLEIKRLEDLKNVFPPEVAVFEPSKAEIAHTQKATLVCLATGFYPDHVELSWWVNGKEVHSGVCTDPQPLKEQPALNDSRYCLSSRLRVSATFWQNPRNHFRCQVQFYGLSENDEWTQDRAKPVTQIVSAEAWGRADCGITSASYHQGVLSATILYEILLGKATLYAVLVSALVLMAMVKRKDSRGRAKRSGSGATNFSLLKQAGDVEENPGPTSATMDWIWRILFLVGAATGAHSGPQVQLQESGGGLAQAGGSLRLSCAASGRTFSMGWFRQAPGKEREFVAAITYSGGSPYYASSVRGRFTISRDNAKNTVYLQMNSLKPEDTAVYYCAANPTYGSDWNAENWGQGTQVTVSSGSGGGGSGGGGSGGGGSFEQVQLQQPGAELVKPGASVKMSCKASGYAFSSYWINWMKQKPGQGLEWIGQIYPGDGDTNYNGKFKGRATLTADTSSSTAYMQLSSLTSEDSAVYFCARSITTVVGCAMDYWGQGTSVTVSSTRIQNPDPAVYQLRDSKSSDKSVCLFTDFDSQTNVSQSKDSDVYITDKCVLDMRSMDFKSNSAVAWSNKSDFACANAFNNSIIPEDTFFPSSDVPCDVKLVEKSFETDTNLNFQNLSVIGFRILLLKVAGFNLLMTLRLWSSRAKRSGSGVKQTLNFDLLKLAGDVESNPGPSRGHMTEYKPTVRLATRDDVPRAVRTLAAAFADYPATRHTVDPDRHIERVTELQELFLTRVGLDIGKVWVADDGAAVAVWTTPESVEAGAVFAEIGPRMAELSGSRLAAQQQMEGLLAPHRPKEPAWFLATVGVSPDHQGKGLGSAVVLPGVEAAERAGVPAFLETSAPRNLPFYERLGFTVTADVEVPEGPRTWCMTRKPGA
Consider B4, for which the “NFAT-GFP ASSAY: Raji-CD19-KO” value in assay [2] was 5+ (refer to approximately 5%, 10%, 20%, 30%, 40% and 50% GFP positive cells).
